Measurements reported in the DeepSol protein solubility set.

assay: soluble on expression in E. coli; label from the status in PepcDB or PDB records

Soluble on expression in E. coli, not soluble:
MGSDKIHHHHHHMTRKNKEQPAMSNNTSSNTNGKPQKRLIIITGDKGGVGKSTFARAIFQLYINKNLPCVAYEADLRNPQIERYFQKDYRPIIRYIDIFHRGGADDLLINLDESDCPITLLDLPAQSGCFFESYVKELAFFEVLKTEINCRVTMVSVISRVLDSINVLEKLRELCKDQVDYIVVKNLFHGEEEKFERYNDSSLRQNMLAEGLIELVMPDLFYKSYDFLDRHALTFNEGQTHQETNIVIKSRIKSWVAEFEAQIKPAFNFLGFDIQPDDCYYPAVVEKSKELRENEEKEKAKNQDANLPSEDIAA
MGSDKIHHHHHHMTRTIVIDPVTRIEGHAKISVFLDDQGNAEAARFHVVEYRGFEKFCEGRPFTEMAGITARICGICPVSHLLAAAKTGDKILAVQIPPAAENLRRLINLAQIIQSHALSFFHLSSPDFLLGWDSDPARRNLFGLIAADPETARAGIRLRQFGQQLIEWLGGRKIHAAWAVPGGVRSLLSQEGMVWIRDRLPAELATVRATLDRFKRLLDREFREETAVFGDFPSLFMGLVADNGDWEHYGGHLRFVDSQGRIIADRLREDDYASFLGEAVEPWSYLKFPYYKPWGYPEGMYRVGPLARLNVCDRIGTAGAEAERQELRDRAGGTVTSSFLYHYARLVEILASLEKIAEMVEDPNLQTGFLRSQAGVNCLEAIGVSEAPRGTLFHHYRVDSHGKIERVNLIIATGQNNLAMNRTVTQIAQHYIRHGEVQESFLNRVEAGIRCFDPCLSCSTHTAGQMPLKIEIFDSRGELYQCLCRDL
MGSDKIHHHHHHMTSICICDDEKQQRNMLNKIITREMDLWGYPYQIKEYSNGESLVYNLEHENYYIDIIFLDIELGKSNGVDIAKTIRKHSKDTIIIFVTGFSDYVFHGYDVGALNYILKPYKTEKICKVLKEALKKLEQWKENFITVQIGTNLCKINTKDILYFKSELRKLTVVTFDKTLEYYGKLNDMETVLPSNFIRTHQRYIVNLNHVDSITQTYAKVQNEKIPISRKKYQEVVGKFTRYMLES
MGSDKIHHHHHHMTSKITRQANASEDSLLRIFTAPEDSTSTLSIIEQKLSQDLAGFLGNSIAALEKPLSEIETDFSAYQIPTEPKFVSDYADEIMQNLVAHSVHTSAPSFIGHMTSALPYFVLPLSKMMVGLNQNLVKIETSKAFTPLERQVLGMMHNLVYQQSDDFYHQWMHSANHSLGAFCSGGTVANITALWIARNRLLQPRGDFKGVTREGMTKALRFYGYDDLAILVSDRGHYSLGKTADLLGIGRDNIISIPTDEHHKVDVAAMRDAAEKLAQQNIKVMAIVGIAGTTETGNVDPLTELAALASELNCHFHVDAAWGGASLLSKKYSHLLKGIELADSVTIDAHKQMYVPMGAGMVLFKDPELAKAIVHHAEYILRVGSKDLGSQTLEGSRPGMAMLVHACLQIIGRDGYEILINNSLEKARYFGSIIDQHADFELVTAPELCLLTYRYVPKSVQAILTTALANQDSALVASINELLDGLTQFIQKHQREQGKSFVSRTRIKPAKYLRQPTTVFRVVLANPLTSHQILHDVLTEQVEIAALDSEYLPQLLAL
MGSDKIHHHHHHMTSREQIIELIKSGEFTQAELARQMGVNSGALSSYLGGKYKGNVENIENVLASWLSTRDKKEKVFVEAPHFIEIPTADKVFKALDMARFCKTIVPIFGASGVGKTKACQEYKKRYQNVWMITISPSRASLNAFLYELALELGIKDAPRRKDRLSRLILDNLKDTEGLVIVDESDHLTYDSIEELRYLQEKAEVGFALIGNNKVYTKMQGGANQAHEYARLWNRIGKKCQIKASKKGDIKAVAQAWGLDVQDKDLMTVLYDIGGKAGGLRALTQYLRLAGMTAKGQGTGITLDLILTAQAEMTGSE
MGSDKIHHHHHHMTTGKLSHAHLCGWLRFKHLTLLTTLAESRNMHATARVMHLSQPAASKMLRDLEVYFGFALFERLPRAMQPTELGEQVIRHAWILLNDMERLVDDINDLREGGYGQLLIGAIAAAAPEILPAAIARLKQARPRLSVSLQEQTSDRLLLELEHKRLDLVIGRLTHVSQHNLFDFEPLLDEPLRVVVRRDHPLTRRGEAPSLDELSHWPWILHPLSSPMRGVFESALAEEGIATPANVVETTSIQATLQLLQSSDMLAVLPRSVMRRPLAGGQYVVLERVIGKPLDYYGIITRRQEPLSPAVEELVVHLRRLAAEADGR
MGSDKIHHHHHHMTTLTFQSTTLSAIHQNNQIWLTVTEIGKALGYSDPFKSVKNIYDRHADEFTPQMTALIDMRTNGGIQKVRIFSLRGAHLIGMLSHTKVAKDFRRWVLDILDREAQQPKQLALPQPEKTYTVPLTEYRNCHLKTRVFLVHSTSYCPFLSNKKALTWRAWGWLGLFISLACICLDKIHRRE
MGSDKIHHHHHHMTTPTPVRAIVPTWLYEGLGLLVANPKVGKSTLMLQIVVAVTKGGEMWGQSVPRAKVLMIDLETNERRLRRKLEQAGAVGIESGWLLYATSWPRGLLGIDEIANTLDRDPEIKLVVIDTLQRFRDPGAGKQNAYAADYEALGPLQQLCRDRPGLAIVCVHHKRKSISDDPIDSISGSAAIAGACDSIWIMSRKGSEYTLHIQGRDWERDEDTFPIERVDQGWQLVNGPRYSSNEAEVLKHLEISGGMTGPQLGEALGIHRVSAYERLKRMADRGLVRFAGEHWHVS
MGSDKIHHHHHHMTTRERIIETAITLFNEKGTKAVTTNHIAAAMEISPGNLYYHFRNKEEIIRAIFDQMDAVGFEDYEQIIAEHPAGSLAAMEETFLMIQRFNWRYRFFKRELTSLILSDPLLREKHLRVHQAMLRLVRHSIKSSIAQGVLRPMEEDELGLFAEEIWLLTLFWLNYLEVGGEDVTESTLRRGNELVRRTVCCRLTEEGARMLGRSGPAAP
MGSDKIHHHHHHMTTVNETTSQAGLALAQAGSNSAAQGIQDQFLTLLVTQLRNQDPLNPMENAELTSQLAQISTVEGINNLKNTMLAISGQIDVSQSMDAVSMIGKGVLMPGDKVSLGADPNDPAQRGATPFGIDLQGDATKVTVKVLDPSGAVVRTMELGDLKTGVHTLQWDGNNDGGQPLADGKYSITVSASDADANPVKTEALTYGQVKSVAYSTNGLRLDLGLAGQISMLDVRKVIGASGSA
MGSDKIHHHHHHMTVKAKRFRIGVEGATTDGREIQREWLVQMAASYNPTVYTALINLEHIKSYLPESTFNRYGRVTGLVAEEIQDGPLAGKMALYADIEPTDALVELVKKGQKLFTSMEVSTKFADTGKAYLVGLGATDDPASLGTEMLAFSASAAHNPLANRKQNPENLFSEAVETLIELEEVQDEKPSLFARVTALFTKKEQTDEARFSDVHKAVELVASEQQNLSERTDKSLSEQDKRLSELESSLQEQLAAFAELEQKLSSEDSRKDYRQRAPGGDAPAGTLTNC
MGSDKIHHHHHHMTVSNPAKSIRIGTMISGNNGDAATRIREIAGLGFESFEPFFWQTTKGQNLAELGKRCVDAIGDRDITISTLGMFGNPLEETDIDLETLEGWKQCIDNAHHFGASCVAGFTGRLRGKVLTDSLPRYREIWSELAKRAADKGIRIAFENCAMDGNWQSGDWNIAHNPDAWELMFNETPDDNIGLEWEPCHQMVYLIDPLPQIRKWASKIFHVHGKDATIRWDVIREHGIFGKEPFVFMRTPGFGDSNWTNVISELRLAGYSGSIDIEGWHDPVYRDALEMTGQVHALNHLKQARGGDFIDEMAAYGGGDPSLK
MGSDKIHHHHHHMTWTDLKSSLAAEGYVASDDLAVALQLALSLGRPLLLEGAAGVGKTEIARTLSAVRDTRLIRLQCYEGLDAAQAIYEWNYQRQLLTIRAASEAGETGKAVEDRIFSRDFLLERPLLAAITQEMAPVLLIDEIDRADEEFEAYLLEILSDFQVSIPELGTITAVTRPMVVLTSNGTRDLSDALRRRCLYTYVEYPDRTAELAILKARCPDVEARLAEQIIGFVQRLREEELEKTPGVAEMLDFAAALMGLGIADLTDNPAVLQSTLTTLLKTQSDQAQITREVAGRIAVKAA
MGSDKIHHHHHHMTYREYKEPATRAGGIIELPHRTDANRFLASLGVAERATLASHLQLVHVKSGQVLCEPGMALEHVYLPVTTVISIQYASSDGMTLEIAEIGNEGIVSPQLVGTDGASPCRVITCRDGFSYRLGARVLSNLLEESAQTRQAIFRCTHLLMAQAKQISFCSRHHVLKNQLCRWFLLAYDRSRSVEIQVTHSMLAQMLGVRRETVTDAAGDIQKMGLIRQYRSSIILVDLPGLDAQSCGCHAIIREEMKKIQAAPTSASGTLTELRS
MGSDKIHHHHHHMTYSKQSEWREIQSYLPKKYHFTDNYHPTEEWWNWKGHEVHLDCFRNEKAPVKVILLHGVGTNGRQMSMILGGPLSKDGFETIAIDMPTYGVTKVKKGSVVKYDDWVDLACDYIDYEQQRDDRPIVLYGLSAGGMETYHVAAKNKKVKGIIGMTFLDQKNQQVRDETAKNLVMSRVGIPMAGIACNIGLENFKMKMSTASKMSALCNNEKVMEIFNRDKTSAANKASMRFLDSYGNYQPAMEPEDFDVCPILLTQPEQDKWTPLHLSTPFLNKIKKVDVKIVMLENGGHYPVEQPALDQMHDAIVEFIYKVTK
MGSDKIHHHHHHMVAQIQELEAQHWVKTRSSLDPNESTFLIWKGKIYAFIPGEKRQLLFKILGLSVSRCIPTAEGSWDFTSRELTYYLNPKTDEILRKWENPWTSETVPVIHVANNPVQGKFEGNFPAQVDGDSTTFVFDIFPYYPNPLADDPKFAEYSPNPIYQAAELFKLTVPTADLFNSALPSVSELKLSWDRIGQWLPWMKMGDRPGQLIYSAVGSKVNGLTELPPLLQDEINNRIPLYKQAPKALIDGEDMTSWLYFQKHFPAYLAGEIFPLPQAEEL
MGSDKIHHHHHHMVEEQHVTQYGSLLKPCMSRLENLLVHQYVECWLYWSCYETETDTRIRGIWQFMFEQELKHLHIALELLRQYEKKDWQEVIPDAEFPAPLVLESNIEYVRCVLGSTVNDTACRERYVDVRNNAPETFIRYQRMVNDPVRNVMSHTFIEDYIRKNGEDYRFEVAPNPVPELRDRTKDNICVGRQPLCRNRY
MGSDKIHHHHHHMVGCLTLTLLVGCSAAEKPVEQVKQVKNTLTAKLATEEKMIEIDGQTIYFKKIGNEKPPLLMIHGFGGSSDGFQKIYSDLAKNHTIISVDALGFGRSSKPMDFYYSFPTHANLYYKLMKKLGYDSFAILGHSMGGEISLNLTYLYPEAVTHLILTDATGGPHTLVNKQGSPRPQLSTDLNTVSAITDYDESKVKFKRNDEEHYNKMKLWPRRLQINADEIKQPTLIIWGRNDSSVSWEEGETYHQFFKNSTFHIIEKGYHAPFRQEPQEFVGYVKDFFDKNPIIAEK
MGSDKIHHHHHHMVKIAVLGLGRVGLRAAYNLASRGFDVLGLDASNDAVSRARSLGLEARLYDVEGRKAGEYLRGQRVVAAFIALPYPVASRAVAHLSSAGIPVVVASIKPLRIDPGVVRAPILTEVGVSPGLSNVILYSMAAETGGGVSARVYVGSFGAREDGLLSHASTWRVEEMLEQYVTPAKLIQDGSEAVADPLDPSLWMEYSDPEHGVLECFPSQGLAGFISRRGSLFKELMECSLRRRGHLKVVLTMRGLGLLDSTPLKVSGCIVRPFDMAVKLVETRYPPDVGDVAVFTVEARRGGRWETLARASLRHGGGWSASSKMVGGASSAFAEVFAAEGLSEEEPGIIYPEDLYELGLAEKLLSLLPSHGVSLEVG
MGSDKIHHHHHHMVKRMKLPESKNLSLYWEKYSFLLLEGSNSKDKEIVSKIFQTVEKLQSDFGKISSILKERREQLIKKRKPFINLKMRVKGKLLLGAGNPSSIEVGITLSRNYGLPIIPGTAVKGAFASFLFEFERDKYESLAHIFGDTEREGDLIFLDAIPVSDLKFSLDIVNPHFQPYYMKEKLPPNDWYDPVPIKYLVVSSGVFWFTVLESRSGVIGNSEKELIKQRFVEMLKAYGLGAKTSYGYGRFEEPS
